Measurements as given in paper PMC5218472 (PLoS Biology, 2017).
Residue numbers refer to the chain shown, from its start. Residues, ends and D or L forms follow the SMILES beside them. No end group written: not given here. *: point of attachment. NH(β-GlcNAc) = CC(=O)N[C@@H]1[C@@H](O)[C@H](O)[C@@H](CO)O[C@H]1N*; αGalNAc = CC(=O)N[C@@H]1[C@@H](O)[C@@H](O)[C@@H](CO)O[C@@H]1*

B1: PVQA: IL-6R Asp358Ala variant (protein, UniProt P08887 20-468, looked up, variant D358A)
Interleukin-6 receptor …: LAPRRCPAQEVARGVLTSLPGDSVTLTCPGVEPEDNATVHWVLRKPAAGSHPSRWAGMGRRLLLRSVQLHDSGNYSCYRAGRPAGTVHLLVDVPPEEPQLSCFRKSPLSNVVCEWGPRSTPSLTTKAVLLVRKFQNSPAEDFQEPCQYSQESQKFSCQLAVPEGDSSFYIVSMCVASSVGSKFSKTQTFQGCGILQPDPPANITVTAVARNPRWLSVTWQDPHSWNSSFYRLRFELRYRAERSKTFTTWMVKDLQHHCVIHDAWSGLRHVVQLRAQEEFGQGEWSEWSPEAMGTPWTESRSPPAENEVSTPMQALTTNKDDDNILFRDSANATSLPVQASSSVPLPTFLVAGGSLAFGTLLCIAIVLRFKKTWKLRALKEGKTSMHPPYSLGQLVPERPRPTPVLVPLISPPVSPSSLGSDNTSSHNRPDARDPRSPYDISNTDYFFPR
B2: IL-6R / sIL-6R (interleukin-6 receptor): peptide 3(QD), GlcNAc at Asn-350 (protein)
parent chain: MLAVGCALLAALLAAPGAALAPRRCPAQEVARGVLTSLPGDSVTLTCPGVEPEDNATVHWVLRKPAAGSHPSRWAGMGRRLLLRSVQLHDSGNYSCYRAGRPAGTVHLLVDVPPEEPQLSCFRKSPLSNVVCEWGPRSTPSLTTKAVLLVRKFQNSPAEDFQEPCQYSQESQKFSCQLAVPEGDSSFYIVSMCVASSVGSKFSKTQTFQGCGILQPDPPANITVTAVARNPRWLSVTWQDPHSWNSSFYRLRFELRYRAERSKTFTTWMVKDLQHHCVIHDAWSGLRHVVQLRAQEEFGQGEWSEWSPEAMGTPWTESRSPPAENEVSTPMQALTTNKDDDNILFRDSANATSLPVQDSSSVPLPTFLVAGGSLAFGTLLCIAIVLRFKKTWKLRALKEGKTSMHPPYSLGQLVPERPRPTPVLVPLISPPVSPSSLGSDNTSSHNRPDARDPRSPYDISNTDYFFPR
B3: IL-6R / sIL-6R (interleukin-6 receptor): peptide 9(QD), biantennary N-glycan plus GalNAc (protein)
parent chain: B2 parent chain
B4: IL-6R / sIL-6R (interleukin-6 receptor): peptide 7(QD), GalNAc at Thr-352 (protein)
parent chain: B2 parent chain
B5: IL-6R / sIL-6R (interleukin-6 receptor): peptide 5(QD), biantennary N-glycan at Asn-350 (protein)
parent chain: B2 parent chain
B6: IL-6R / sIL-6R (interleukin-6 receptor): peptide 6(QA), biantennary N-glycan at Asn-350 (protein)
parent chain: B2 parent chain with D358A
B7: IL-6R / sIL-6R (interleukin-6 receptor): peptide 10(QA), biantennary N-glycan plus GalNAc (protein)
parent chain: B2 parent chain with D358A
B8: IL-6R / sIL-6R (interleukin-6 receptor): peptide 4(QA), GlcNAc at Asn-350 (protein)
parent chain: B2 parent chain with D358A
B9: IL-6R / sIL-6R (interleukin-6 receptor): peptide 8(QA), GalNAc at Thr-352 (protein)
parent chain: B2 parent chain with D358A

Test system: ADAM10
Experiment: Ionomycin-induced ADAM10-mediated IL-6R ectodomain shedding in transiently transfected HEK293 cells, sIL-6R ELISA
Assay type: cell-based, human
Conditions: treatment DMSO; normalised to PVQD Iono = 100; mean of n = 3
From the text: Analysis of IL-6R ectodomain shedding in transiently transfected HEK293 cells or stably transduced Ba/F3-gp130 cell lines by ADAM10 and ADAM17 has been described elsewhere. Analysis of IL-6R proteolysis by CG has been described previously.
The sandwich ELISA, which detects sIL-6R as well as ds-sIL-6R (4-11/Baf227 antibodies) and can be used to quantify total sIL-6R serum levels, was described previously. To specifically detect ds-sIL-6R (either recombinant or in human serum), a similar approach was used (ds6R/Baf227). Both sandwich ELISAs were performed with streptavidin-horseradish peroxidase (R&D Systems, Minneapolis, Minnesota, US) and the peroxidase substrate BM blue POD (Roche, Mannheim, Germany). The enzymatic reaction was stopped by addition of 1.8 M sulfuric acid, and the absorbance read at 450 nm on a Tecan rainbow reader (Tecan, Crailsheim, Germany).
Supplementary file pbio.2000080.s004.tif: S4 Fig Mutation of Val-356 is sufficient to block ADAM10-mediated proteolysis of the IL-6R and the Asp358Ala variant. (A) HEK293 cells were transiently transfected with Expression plasmids encoding the wildtype IL-6R (PV) or the double mutants (IE, DG) as indicated. Cells were either treated with 1 μM ionomycin for 1 h or DMSO as vehicle control. sIL-6R was precipitated from the supernatant with concanavalin A-covered Sepharose beads, and cells were lysed. Both were analyzed via Western blot, and β-actin served as loading control. One out of three experiments with similar outcome is shown. (B, C) The experiment was performed as described under (A), but sIL-6R generation was analyzed via ELISA. In (B), the amount of sIL-6R generated after ionomycin-stimulation of the wildtype IL-6R (PV) was set to 100%, and all other values were calculated accordingly. In (C), the amount of sIL-6R without stimulation was considered as constitutive shedding and set to 1 and the increase of sIL-6R was calculated. Data shown are the mean ± SD from at least three independent experiments (*p<0.05, ns = no significant difference). (D-F) HEK293 cells were transiently transfected with expression plasmids encoding the wildtype IL-6R (PV) or the single mutants (DV, IV, PE, PG) as indicated. The experiments were performed as described in (A) to (C). (G) ADAM10-mediated proteolysis of the IL-6R variants depicted in Fig 4I was analyzed as described in (B). (H) Equal numbers of Ba/F3-gp130-IL-6R_DG cells were incubated for 48 h with increasing amounts (0–100 ng/ml) of either IL-6 or Hyper-IL-6. One representative experiment out of three performed is shown (mean ± SD, biological triplicates). (TIF) Click here for additional data file.

Molecule	sIL-6R shedding, Figure S4G, mean
B1	109.87

Same assay, conditions: treatment Iono; normalised to PVQD Iono = 100; mean of n = 3

Molecule	sIL-6R shedding, Figure S4G, mean
B1	197.873

Test system: T1, ADAM17
T1 construct: catalytic domain (aa Pro-18 to Val-477) of ADAM17; purchased Enzo Life Sciences GmbH (Lörrach, Germany)
Experiment: In vitro cleavage assay of IL-6R (glyco)peptides with recombinant ADAM17
Conditions: human, isolated enzyme, pH 9
Method: Fig 7 The N- and O-glycosylated sequon adjacent to the cleavage site is of minor importance for IL-6R cleavage. (A) Amino-acid sequence of the two unglycosylated peptides 1(QD) and 2(QA). Peptides were incubated either with or without recombinant ADAM17 for 16 h at 37°C, and the amount of cleaved peptide was analyzed by reversed-phase (RP) chromatography. (B) Amino-acid sequence of the two glycopeptides 3(QD) and 4(QA), which have a GlcNAc attached to the amino-acid residue corresponding to Asn-350 of the IL-6R. Cleavage was determined as described in panel (A). (C) Amino-acid sequence of the two glycopeptides 5(QD) and 6(QA), which have a biantennary N-glycan attached to the amino-acid residue corresponding to Asn-350 of the IL-6R. Cleavage was determined as described in panel (A). (D) Amino-acid sequence of the two glycopeptides 7(QD) and 8(QA), which have a GalNAc attached to the amino-acid residue corresponding toThr-352 of the IL-6R. Cleavage was determined as described in panel (A). (E) Amino-acid sequence of the two glycopeptides 9(QD) and 10(QA), which have a biantennary N-glycan attached to the amino-acid residue corresponding to Asn-350 and a GalNAc attached to the amino-acid residue corresponding toThr-352 of the IL-6R. Cleavage was determined as described in panel (A). All data shown are the mean ± SD from three independent experiments (*p < 0.05, **p < 0.01, ***p < 0.001, compared to the untreated peptide; ^§p < 0.05, compared to the cleaved nonglycosylated peptide).
Two 1.5 ml reaction tubes were filled with 50 μl peptide (50 μM) solved in 25 mM Hepes (pH 9.0), and 0.5 μl of the recombinant catalytic domain of ADAM17 was added to one of the reaction tubes, whereas the other sample remained untreated. All samples were incubated for 16 h at 37°C. Afterwards, 1,150 μl 0.1% TFA was added to each sample, and the peptides were separated on a reverse phase chromatography column (Multo High Bio-200-C18) from Chromatographie Service (Langerwehe, Germany) using a linear gradient elution with a binary solvent system and a flow rate of 1 ml/min. Solvent A consisted of 0.1% TFA, and solvent B consisted of 100% ACN. After peak integration, peak areas for cleaved and noncleaved peptides were determined.

remaining at 16 h, 50 μM [%]	Molecule
0.4	CC[C@H](C)[C@H](NC(=O)[C@@H](N)CC(N)=O)C(=O)N[C@@H](CC(C)C)C(=O)N[C@@H](Cc1ccccc1)C(=O)N[C@@H](CCCNC(=N)N)C(=O)N[C@@H](CC(=O)O)C(=O)N[C@@H](CO)C(=O)N[C@@H](C)C(=O)N[C@@H](CC(=O)N[C@@H]1O[C@H](CO)[C@@H](O)[C@H](O)[C@H]1NC(C)=O)C(=O)N[C@@H](C)C(=O)N[C@H](C(=O)N[C@@H](CO)C(=O)N[C@@H](CC(C)C)C(=O)N1CCC[C@H]1C(=O)N[C@H](C(=O)N[C@@H](CCC(N)=O)C(=O)N[C@@H](C)C(=O)N[C@@H](CO)C(=O)N[C@@H](CO)C(=O)N[C@@H](CO)C(=O)N[C@H](C(=O)N1CCC[C@H]1C(=O)N[C@@H](CC(C)C)C(=O)N1CCC[C@H]1C(=O)O)C(C)C)C(C)C)[C@@H](C)O [4(QA)] (H-NILFRDSAD(NH(β-GlcNAc))ATSLPVQASSSVPLP-OH)
86	NILFRDSANATSLPVQDSSSVPLP [1(QD)]
91	CC[C@H](C)[C@H](NC(=O)[C@@H](N)CC(N)=O)C(=O)N[C@@H](CC(C)C)C(=O)N[C@@H](Cc1ccccc1)C(=O)N[C@@H](CCCNC(=N)N)C(=O)N[C@@H](CC(=O)O)C(=O)N[C@@H](CO)C(=O)N[C@@H](C)C(=O)N[C@@H](CC(N)=O)C(=O)N[C@@H](C)C(=O)N[C@H](C(=O)N[C@@H](CO)C(=O)N[C@@H](CC(C)C)C(=O)N1CCC[C@H]1C(=O)N[C@H](C(=O)N[C@@H](CCC(N)=O)C(=O)N[C@@H](CC(=O)O)C(=O)N[C@@H](CO)C(=O)N[C@@H](CO)C(=O)N[C@@H](CO)C(=O)N[C@H](C(=O)N1CCC[C@H]1C(=O)N[C@@H](CC(C)C)C(=O)N1CCC[C@H]1C(=O)O)C(C)C)C(C)C)[C@@H](C)O[C@H]1O[C@H](CO)[C@H](O)[C@H](O)[C@H]1NC(C)=O [7(QD)] (H-NILFRDSANAT(αGalNAc)SLPVQDSSSVPLP-OH)
91.4	CC[C@H](C)[C@H](NC(=O)[C@@H](N)CC(N)=O)C(=O)N[C@@H](CC(C)C)C(=O)N[C@@H](Cc1ccccc1)C(=O)N[C@@H](CCCNC(=N)N)C(=O)N[C@@H](CC(=O)O)C(=O)N[C@@H](CO)C(=O)N[C@@H](C)C(=O)N[C@@H](CC(=O)N[C@@H]1O[C@H](CO)[C@@H](O)[C@H](O)[C@H]1NC(C)=O)C(=O)N[C@@H](C)C(=O)N[C@H](C(=O)N[C@@H](CO)C(=O)N[C@@H](CC(C)C)C(=O)N1CCC[C@H]1C(=O)N[C@H](C(=O)N[C@@H](CCC(N)=O)C(=O)N[C@@H](CC(=O)O)C(=O)N[C@@H](CO)C(=O)N[C@@H](CO)C(=O)N[C@@H](CO)C(=O)N[C@H](C(=O)N1CCC[C@H]1C(=O)N[C@@H](CC(C)C)C(=O)N1CCC[C@H]1C(=O)O)C(C)C)C(C)C)[C@@H](C)O [3(QD)] (H-NILFRDSAD(NH(β-GlcNAc))ATSLPVQDSSSVPLP-OH)
0.93	NILFRDSANATSLPVQASSSVPLP [2(QA)]

Target: not listed separately
Experiment: in vitro peptide cleavage, 16 h, RP chromatography
Conditions: glycan gained; control: unglycosylated synthetic peptide 1(QD)

Molecule	other: proteolytic processing, other: percent peptide intact
B2	decreases
B3	abolishes
B4	decreases
B5	abolishes

Same assay, conditions: glycan gained; control: unglycosylated synthetic peptide 2(QA), Asp358Ala

Molecule	other: proteolytic processing, other: percent peptide intact
B6	no change
B7	decreases, 14.7% ± 6.3% vs 1.0% ± 1.0%
B8	no change, 0.4% ± 0.7% vs 1.0% ± 1.0%
B9	decreases, 10.8% ± 5.4% vs 1.0% ± 1.0%
